Source: paper PMC10397247

How the values were obtained:
Assay in all cases: two-hybrid library CCNG1;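 further: natural log of median RNA to DNA barcode read ratio; higher means stronger binding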
[1] = target: T1, 4H607-bH
T1 chain: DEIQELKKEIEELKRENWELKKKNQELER

[2] = target: T2, 4H3185-bH
T2 chain: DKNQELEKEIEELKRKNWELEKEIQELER

[3] = target: T3, 4H331-bH
T3 chain: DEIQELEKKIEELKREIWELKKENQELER

[4] = target: T4, 4H3354-bH
T4 chain: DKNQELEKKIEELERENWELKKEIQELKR

[5] = target: T5, 4H454-bH
T5 chain: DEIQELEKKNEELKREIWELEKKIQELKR

[6] = target: T6, 4H717-bH
T6 chain: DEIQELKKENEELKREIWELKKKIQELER

[7] = target: T7, 4H687-bH
T7 chain: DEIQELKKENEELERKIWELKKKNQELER

[8] = target: T8, 4H4001-bH
T8 chain: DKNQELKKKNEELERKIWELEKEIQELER

[9] = target: T9, 4H3855-bH
T9 chain: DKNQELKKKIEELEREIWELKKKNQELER

[10] = target: T10, 4H338-bH
T10 chain: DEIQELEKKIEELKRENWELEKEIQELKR

[11] = target: T11, 4H908-bH
T11 chain: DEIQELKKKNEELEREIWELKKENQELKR

[12] = target: T12, 4H918-bH
T12 chain: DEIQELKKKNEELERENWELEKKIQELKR

[13] = target: T13, 4H953-bH
T13 chain: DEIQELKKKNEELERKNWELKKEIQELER

[14] = target: T14, 4H967-bH
T14 chain: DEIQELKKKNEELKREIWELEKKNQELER

[15] = target: T15, 4H754-bH
T15 chain: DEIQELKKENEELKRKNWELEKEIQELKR

[16] = target: T16, 4H3112-bH
T16 chain: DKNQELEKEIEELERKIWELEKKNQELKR

[17] = target: T17, 4H3427-bH
T17 chain: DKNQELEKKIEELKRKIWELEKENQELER

[18] = target: T18, 4H72-bH
T18 chain: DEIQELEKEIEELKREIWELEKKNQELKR

[19] = target: T19, 4H3782-bH
T19 chain: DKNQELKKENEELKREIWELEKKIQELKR

[20] = target: T20, 4H797-bH
T20 chain: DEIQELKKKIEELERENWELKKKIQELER

[21] = target: T21, 4H883-bH
T21 chain: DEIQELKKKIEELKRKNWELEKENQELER

[22] = target: T22, 4H2729-bH
T22 chain: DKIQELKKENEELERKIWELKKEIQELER

[23] = target: T23, 4H568-bH
T23 chain: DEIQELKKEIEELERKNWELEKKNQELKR

[24] = target: T24, 4H3189-bH
T24 chain: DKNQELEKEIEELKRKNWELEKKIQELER

[25] = target: T25, 4H3606-bH
T25 chain: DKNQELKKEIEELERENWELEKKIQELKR

[26] = target: T26, 4H370-bH
T26 chain: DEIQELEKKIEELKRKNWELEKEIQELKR

[27] = target: T27, 4H3843-bN
T27 chain: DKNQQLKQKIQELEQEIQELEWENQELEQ

[28] = target: T28, 4H3843-bH
T28 chain: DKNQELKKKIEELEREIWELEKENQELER

[29] = target: T29, O4-bN
T29 chain: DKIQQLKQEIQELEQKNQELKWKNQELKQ

[30] = target: T30, 4H2697-bH
T30 chain: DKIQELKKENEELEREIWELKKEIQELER

[31] = target: T31, 4H462-bH
T31 chain: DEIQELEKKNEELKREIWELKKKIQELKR

[32] = target: T32, 4H2667-bH
T32 chain: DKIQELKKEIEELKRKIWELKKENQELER

| Binder | interaction score [1] | interaction score [2] | interaction score [3] | interaction score [4] | interaction score [5] | interaction score [6] | interaction score [7] | interaction score [8] | interaction score [9] | interaction score [10] | interaction score [11] | interaction score [12] | interaction score [13] | interaction score [14] | interaction score [15] | interaction score [16] | interaction score [17] | interaction score [18] | interaction score [19] | interaction score [20] | also measured |
| --- | --- | --- | --- | --- | --- | --- | --- | --- | --- | --- | --- | --- | --- | --- | --- | --- | --- | --- | --- | --- | --- |
| DKIQELKKENEELERKIWELKKEIQELER [4H2729-bH] | -1.66 | -3.12 | -1.61 | -0.446 | 1.36 | -0.127 | -0.723 | -0.467 | 0.286 | -0.279 | -0.811 | 0.482 | -0.638 | 0.548 | 0.0247 | 0.258 | 0.368 | -1.03 | 0.82 | -0.381 | interaction score [21]: -0.885; interaction score [22]: 1.2; interaction score [23]: -0.0225 |
| DKIQELKKEIEELKRKIWELKKENQELER [4H2667-bH] | 0.145 | 0.789 | 1.71 | -0.302 | 0.0385 | -0.859 | -0.168 | -2.94 | 0.693 | 1.42 | -1.3 | -2.64 | 0.0882 | -0.166 | -0.933 | -0.422 | 1.38 | 0.612 | -0.0673 | -0.539 | interaction score [24]: -0.454; interaction score [25]: 1.83; interaction score [26]: 0.226; interaction score [27]: 1.56; interaction score [28]: 1.84; interaction score [29]: -0.678; interaction score [30]: 1.31; interaction score [31]: 1.01; interaction score [21]: 0.434; interaction score [22]: 1.75; interaction score [23]: 0.0192; interaction score [32]: 0.801 |
